# Results reported in paper PMC3985465.
# B1: Papain (crude, from papaya latex) (protein)
# chain: IPEYVDWRQKGAVTPVKNQGSCGSCWAFSAVVTIEGIIKIRTGNLNEYSEQELLDCDRRSYGCNGGYPWSALQLVAQYGIHYRNTYPYEGVQRYCRSREKGPYAAKTDGVRQVQPYNEGALLYSIANQPVSVVLEAAGKDFQLYRGGIFVGPCGNKVDHAVAAVGYGPNYILIKNSWGTGWGENGYIRIKRGTGNSYGVCGLYTSSFYPVKN
# Target: L′LKAAμ thiopeptide (thioleucine-Leu-Lys-Ala-Ala-7-methoxycoumarin-4-ylalanine)
# Experiment: stopped-flow fluorescence kinetics
# Conditions: other: stopped-flow fluorescence kinetics (global fit to a three-step scheme)
protein,measurement,value
B1,"KS (enzyme-substrate complex, first step of the three-step scheme)",KS = k1/k–1 = 921 μM
